Laboratory results reported in patent US20240102094A1 (Amgen, published 2024).

T1: human TREM2, common variant, expressed on cells (human, UniProt Q9NZC2 19-230)
T1 sequence: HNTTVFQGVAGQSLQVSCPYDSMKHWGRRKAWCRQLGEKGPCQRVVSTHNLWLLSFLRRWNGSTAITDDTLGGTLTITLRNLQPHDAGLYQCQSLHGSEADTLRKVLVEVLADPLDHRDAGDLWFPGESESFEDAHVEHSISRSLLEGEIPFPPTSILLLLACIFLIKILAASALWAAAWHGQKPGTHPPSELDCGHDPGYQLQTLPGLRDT

T2: human TREM2 R47H variant, expressed on cells (human, UniProt Q9NZC2 19-230)
T2 construct: On BMMs from TREM2R47H transgenic mice or on 2B4 NFAT:GFP reporter cells with DAP12; also called hTREM2R47H
T2 chain: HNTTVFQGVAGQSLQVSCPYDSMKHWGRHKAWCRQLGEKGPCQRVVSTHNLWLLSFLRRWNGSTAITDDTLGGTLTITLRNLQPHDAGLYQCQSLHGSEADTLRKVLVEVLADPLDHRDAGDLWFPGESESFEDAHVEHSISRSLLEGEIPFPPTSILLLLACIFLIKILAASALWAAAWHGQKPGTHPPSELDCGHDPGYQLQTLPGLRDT

T3: mTREM2 expressed with mDAP12 on HEK293 cells (mouse, UniProt Q99NH8 19-227)
T3 construct: whole, on cells
T3 sequence (looked up): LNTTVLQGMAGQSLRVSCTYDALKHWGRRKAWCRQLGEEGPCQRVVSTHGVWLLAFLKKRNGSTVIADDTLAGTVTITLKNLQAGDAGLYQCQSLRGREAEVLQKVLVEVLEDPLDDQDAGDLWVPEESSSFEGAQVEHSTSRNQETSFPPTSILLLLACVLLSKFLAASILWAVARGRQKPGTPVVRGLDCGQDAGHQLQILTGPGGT


What was measured:
[1] = target: T1, human TREM2, common variant, expressed …; assay: cell-based or functional assay
[2] = target: T2, human TREM2 R47H variant, expressed on …; assay: flow cytometry on bone marrow-derived macrophages from TREM2R47H mice, detection with anti-hIgG Fc-PE
Excerpt: An anti-hTREM1 antibody and an isotype-matched hIgG2 control antibody were used as controls. […] Dead cells were excluded by DAPI staining.

[3] = target: T3, mTREM2 expressed with mDAP12 on HEK293 …; assay: flow cytometry on HEK293 cells expressing mTREM2 and mDAP12, Geomean Fold (S/B) against antibody concentration
[4] = target: T4, recombinant hTREM2:GSS:Flag:6xHis (human, UniProt Q9NZC2 19-174, minimally biotinylated (0.3-0.4 biotin/mol) when immobilised on streptavidin sensors); assay: Octet BLI; biotinylated hTREM2:GSS:Flag:6xHis on streptavidin sensors, Fab dilution series 30, 10, 3.3 nM, global 1:1 fit; Fab, not IgG; biotinylated hTREM2 on streptavidin sensors
T4 construct: also called hTREM2-His; purified human TREM2; not shown: Flag tag

Binder | EC50 of pSyk induction in HEK293 cells expressing human TREM2 and DAP12 (clone G13) [1] | EC50 of pSyk induction in human monocyte-derived macrophages (hMacs) [1] | binding result [2] | binding result [3] | Kd [4]
hT2AB (fully human anti-human TREM2 agonistic monoclonal antibody, effectorless hIgG1) (antibody, V domains shown, also called hT2AB IgG1; anti-human TREM2 mAb hT2AB) VH: EVQLVQSGAEVKKPGESLKISCKGSGYSFTSYWIGWVRQMPGKGLEWMGIIYPGDADARYSPSFQGQVTISADKSISTAYLQWSSLKASDTAMYFCARRRQGIFGDALDFWGQGTLVTVSS VL: EIVMTQSPATLSVSPGERATLSCRASQSVSSNLAWFQQKPGQAPRLLIYGASTRATGIPARFSGSGSGTEFTLTISSLQPEDFAVYYCLQDNNFPPTFGQGTKVDIKR | 222 pM | 166 pM | binds | no binding (tested: 5 ug/mL) | 
hT2AB Fab (monomeric antigen-binding fragment of hT2AB) (Fab, V domains shown, also called hT2AB Fab protein) VH: EVQLVQSGAEVKKPGESLKISCKGSGYSFTSYWIGWVRQMPGKGLEWMGIIYPGDADARYSPSFQGQVTISADKSISTAYLQWSSLKASDTAMYFCARRRQGIFGDALDFWGQGTLVTVSS VL: EIVMTQSPATLSVSPGERATLSCRASQSVSSNLAWFQQKPGQAPRLLIYGASTRATGIPARFSGSGSGTEFTLTISSLQPEDFAVYYCLQDNNFPPTFGQGTKVDIK |  |  |  |  | 50 nM
